Earlier results, collected in patent US20070225245A1, “Viral vector driven mutant bacterial cytosine deaminase gene and uses thereof” (priority 1998, published 2007).

Settings: cited from earlier work

B1: bCD: wild type bacterial cytosine deaminase (protein, UniProt P25524 2-427, looked up)
Cytosine deaminase: SNNALQTIINARLPGEEGLWQIHLQDGKISAIDAQSGVMPITENSLDAEQGLVIPPFVEPHIHLDTTQTAGQPNWNQSGTLFEGIERWAERKALLTHDDVKQRAWQTLKWQIANGIQHVRTHVDVSDATLTALKAMLEVKQEVAPWIDLQIVAFPQEGILSYPNGEALLEEALRLGADVVGAIPHFEFTREYGVESLHKTFALAQKYDRLIDVHCDEIDDEQSRFVETVAALAHHEGMGARVTASHTTAMHSYNGAYTSRLFRLLKMSGINFVANPLVNIHLQGRFDTYPKRRGITRVKEMLESGINVCFGHDDVFDPWYPLGTANMLQVLHMGLHVCQLMGYGQINDGLNLITHHSARTLNLQDYGIAAGNSANLIILPAENGFDALRRQVPVRYSVRGGKVIASTQPAQTTVYLEQPEAIDYKR
retained activity (at 168 h): 100%

B2: yCD: yeast cytosine deaminase (protein, UniProt Q12178 1-158, looked up)
Cytosine deaminase: MVTGGMASKWDQKGMDIAYEEAALGYKEGGVPIGGCLINNKDGSVLGRGHNMRFQKGSATLHGEISTLENCGRLEGKVYKDTTLYTTLSPCDMCTGAIIMYGIPRCVVGENVNFKSKGEKYLQTRGHEVVVVDDERCKKIMKQFIDERPQDWFEDIGE
enzyme activity (by 96 h at 37° C.): loses all activity
